Source: patent US11529390B2, “PCSK9 inhibitory polypolypeptides and methods of use” (INSTITUT DE CARDIOLOGIE DE MONTREAL, priority 2015, dated 2022)
Where two headings read alike, the source gives them in different places. Ends that are not written are not given here. Peptide text beside a SMILES is read from it. * marks the point of attachment. Cbz = O=C(OCc1ccccc1)*

How the values were obtained:
[1] = target: PCSK9 binding to the LDLR EGFA domain (Homo sapiens, UniProt Q8NBP7); experiment: In vitro PCSK9-LDLR(EGFA) competitive assay, plate coated with LDLR-EGFA domain; conditions: 100 or 10 μM peptide, 100 ng wild-type human His-tagged PCSK9, pH6.1, 2 h
Sequence of PCSK9 binding to the LDLR EGFA domain (Q8NBP7 153-692): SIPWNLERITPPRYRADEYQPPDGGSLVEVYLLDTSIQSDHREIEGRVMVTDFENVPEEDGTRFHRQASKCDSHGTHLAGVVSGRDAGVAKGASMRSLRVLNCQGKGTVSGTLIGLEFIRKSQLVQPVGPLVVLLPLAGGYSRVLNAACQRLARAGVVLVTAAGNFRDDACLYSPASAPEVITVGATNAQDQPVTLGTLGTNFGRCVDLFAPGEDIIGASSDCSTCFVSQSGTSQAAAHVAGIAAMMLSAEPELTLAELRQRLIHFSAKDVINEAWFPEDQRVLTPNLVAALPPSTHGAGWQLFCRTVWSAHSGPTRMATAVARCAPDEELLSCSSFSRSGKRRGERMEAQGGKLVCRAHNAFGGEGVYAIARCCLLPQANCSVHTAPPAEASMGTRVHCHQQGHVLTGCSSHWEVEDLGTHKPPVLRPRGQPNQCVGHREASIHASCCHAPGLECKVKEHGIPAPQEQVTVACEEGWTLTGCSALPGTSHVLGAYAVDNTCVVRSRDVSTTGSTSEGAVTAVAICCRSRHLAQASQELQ
Sequence of PCSK9 binding to the LDLR EGFA domain (Q8NBP7 31-152 partner limits assumed): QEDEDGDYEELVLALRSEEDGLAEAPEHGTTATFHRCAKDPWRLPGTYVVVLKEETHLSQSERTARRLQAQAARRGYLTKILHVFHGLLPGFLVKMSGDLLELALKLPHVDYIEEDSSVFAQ
Protocol: SEQ ID. NO. 4 peptide was dissolved to 10 mM (working dilution) in DMEM media (Wisent Cat. #319-005-CL). In a total of 100 μl reaction buffer (HEPES buffer containing NaCl, CaCl2), BSA and proclin 300, pH6.1), SEQ ID. NO. 4 were added to a final concentration of 100 or 10 μM together with 100 ng wild-type human recombinant His-tagged PCSK9. Reaction buffer was added to 96 wells coated with recombinant LDLR-EGFA domain (involved in PCSK9-LDLR interaction) and incubated at room temperature for 2 h on an orbital microplate shaker (300 rpm). Following incubation, wells were washed 4 times with wash buffer and biotinylated anti-His-tag monoclonal antibody was added into each well and incubated for 1 h at room temperature. Following incubation wells were washed 4 times, and HRP-conjugated streptatvidin was added to each well and incubated for 20 min. Following 4 washes, 100 μl substrate reagent (TMB, tetra-methylbenzidine) were added for 15 min to each wells and enzymatic reaction stopped by adding 100 μl stop solution (1N […]). For each well, absorbance at 450 nm and 540 nm was measure and relative PCSK9 binding to LDLR-EGFA was determined according to a standard curve (100 ng to 1.56 ng). Inhibitory activities of SEQ ID. […]

[2] = system: PCSK9-induce degradation of LDLR; experiment: PCSK9-induced LDLR-EGFP degradation in GRP94 knockdown HEK293 cells with proteasome inhibitor; format: cell-based, human; conditions: 5 μM, HEK293, overnight
Protocol: FIG. 4: Knockdown of GRP94 increases LDLR degradation by PCSK9. At day 0, HEK293 cells were transfected either with a non-targeting siRNA (−) or with siRNAs against GRP94 (+). At day 1, cells were transfected with an empty vector (−) or with plasmids encoding for LDLR-EGFP (SEQ. ID. NO. 69) alone or in combination with PCSK9-mCherry (SEQ. ID. NO. 70). At day 2, cells were washed and incubated overnight with DMSO (−) or 5 μM MG132 overnight in complete media. (a) Total LDLR-EGFP, PCSK9-mCherry, GRP94 and β-actin protein levels were analyzed by immune-blotting in cell lysates as indicated. (b) LDLR-GFP and PCSK9-mCherry were visualized in live cells by confocal microscopy as conditions described above. Data are representative of at least three independent experiments.
To decipher the role of GRP94 on PCSK9, we took advantage of HEK293 cells, as they are easily transfectable in addition to be PCSK9-negative. (Seidah et al., 2003) Cells were transfected with either non-targeting siRNA (−) or with siRNAs against human GRP94 (+) and 24 h later without (−) or plasmids encoding for fluorescent PCSK9-mCherry or LDLR-EGFP (FIG. 4). Twenty-hours post cDNA transfections, cells were incubated either with vehicle (DMSO) or 5 μM MG132, a proteasome inhibitor.

[3] = system: LDLR degradation induced by overexpression of PCSK9; experiment: LDLR degradation after co-expression with PCSK9-V5 (intracellular pathway), immunoblot; format: cell-based, human
Protocol: FIG. 7: SEQ ID NO. 6 prevents PCSK9-induced LDLR degradation. (a) Left; Coomassie staining of purified recombinant SEQ ID NO. 6 and PCSK9 separated by SDS-PAGE is shown. Right; HepG2 cells were incubated in DMEM without or with 0, 25, 100 or 250 nM SEQ ID NO. 6 alone or in presence of recombinant PCSK9. (b) HepG2 cells were transfected without (−) or with PCSK9-V5 in absence (−) or presence SEQ ID NO. 66 or SEQ ID NO. 46. Total LDLR, PCSK9, SEQ ID NO. 66, SEQ ID NO. 46 and β-actin protein levels were analyzed by immunoblotting in cell lysates and conditioned media as indicated. Data are representative of at least three independent experiments.
We next tested whether SEQ ID. NO. 6 could alter the capacity of PCSK9 to induce LDLR degradation. HepG2 cells were incubated overnight with an increasing amount of recombinant SEQ ID. NO. 6 in absence or presence of exogenous PCSK9 (FIG. 7a). […] NO. […] Although that SEQ ID. NO. […] NO. […] (Poirier et al., 2009) As PCSK9 was also shown to induce LDLR degradation via an intracellular pathway, (Poirier et al., 2009) we evaluated to ability of SEQ ID. NO. 66 or SEQ ID. NO. 46 to neutralize PCSK9 in HepG2 cells following co-expression (FIG. 7b). Similar to the extracellular pathway (FIGS. 5b and 7a), both SEQ ID. NO. 66 and SEQ ID. NO. […] NO. 66 and specifically SEQ ID. NO. […]

PCSK9-V5 = target: T1, PCSK9-V5 (Homo sapiens, UniProt Q8NBP7); experiment: Co-immunoprecipitation of GRP94 constructs with PCSK9-V5 in transfected HEK293 cells; format: binding
T1 construct: Full-length human V5-tagged PCSK9 and LDLR were subcloned into pIRES2-EGFP; expressed in transfected cells; host or cells: HEK293
T1 sequence (Q8NBP7 153-692): as the sequence (Q8NBP7 153-692) above
Protocol: FIG. 2: Mapping of the PCSK9-GRP94 interacting domain. (a-b) HEK293 cells were transfected without (−) or with (+) PCSK9-V5 or SEQ ID NO. 66, 64 or 65. A PCSK9 V5 epitope-tag fusion protein (PCSK9-V5) was immune-precipitated from cell lysates using mAb-V5 antibody (IP: V5) and immune-blotted as indicated. Total GRP94 (SEQ. ID. NO. 3) and PCSK9 (SEQ. ID. NO. 1) protein levels were analyzed by immune-blotting in cell lysates (input) and conditioned media. (c) Left panel; HEK293 cells were transfected without (−) or with (+) PCSK9-V5, SEQ. ID. NO. 66 or 46. PCSK9-V5 was immune-precipitated for cell lysates (IP: V5) and immune-blotted (IB) as indicated. Total GRP94 and PCSK9 protein levels were also analyzed by immune-blotting and herein used as a control (input). Right panel; GRP94 homodimer (gray and yellow) crystal structure was determined from PDB file #2O1V using MacPymol software. […] 6 in which critical residues for PCSK9 binding determined in (b) are indicated in blue for SEQ. ID. NO. 64 and red for SEQ. ID. NO. 65. Data are representative of at least three independent experiments.
For identification of novel PCSK9 interactors, HepG2 or Huh-7 cells (55 cm2) were washed three times in phosphate-buffered saline (PBS) and incubated with 1 mM dithiobis[succinimidylpropionate] (DSP; Cat. #22585, Thermo Scientific), a thiol-cleavable cross-linking reagent, for 30 min at room temperature and subsequently switch for 15 min into a stop solution (15 mM Tris, pH 7.5). Cells were then lysed in complete radio-immune precipitation assay (RIPA) buffer (50 mM Tris/HCl, pH 8.0, 1% (v/v) Nonidet P40, 0.5% sodium deoxycholate, 150 mM NaCl and 0.1% (v/v) sodium dodecyl sulfate (SDS)) supplemented with a complete protease inhibitor mixture (Cat. #11 697 498 001, Roche Applied Science), passed 25 times through a 22-gauge needle and centrifuged at 11,000 g for 15 min at 4° C. Supernatants were incubated and rotated overnight with pre-immune serum, rabbit anti-hPCSK9 (amino acids 31-454) (1:250; Dr. Nabil Seidah, Clinical Research Institute of Montreal) or mouse anti-V5-tag (1:500; Cat. #R96025, Life Technologies) together with 50 μl protein A/G PLUS-agarose (Cat. #sc-2003, Santa Cruz). Following overnight incubation, beads were washed six times in RIPA buffer and resuspended in 75 μl Laemmli sample buffer. Co-immunoprecipitated (Co-IP) proteins were separated by 8% SDS-polyacrylamide gel electrophoresis and visualized using the Pierce silver stain kit (Cat. #24600, Thermo Scientific) according the manufacturer's instructions. All other Co-IP experiments were performed as described without the cross-linking step and in SDS-deprived RIPA buffer. HA-tagged proteins and GRP94 were immunoprecipitated with mouse anti-HA-tag (1:500; Cat. #H3663, Sigma-Aldrich) or rat anti-Grp94 (9G10, 1:1000; Cat. #ADI-SPA-850, Enzo Life Sciences).
We next decided to map GRP94 domain(s) important for PCSK9 protein-protein interaction. The overall domain structure of GRP94 includes a signal polypeptide (amino acids; aa1-21) followed by a N-terminal enzymatic ATP-binding domain (aa22-651), client-binding domain (CBD; aa652-678), C-terminal dimerization domain (aa679-799) and a KDEL polypeptide sequence (aa800-803) allowing retention of GRP94 in the endoplasmic reticulum. (Dollins et al., 2007; Maki et al., 1990; Wu et al., 2012) Thus, we first generated cDNA constructs encoding secretable HA-tagged forms of human GRP94 lacking its C-terminal KDEL polypeptide (SEQ ID. NO. 66; FIG. 2). HEK293 cells were transfected without or with SEQ ID. NO. 66 in absence or presence of PCSK9-V5 (FIG. 2a). […] NO. 66 is well expressed (Input; IB: HA) and secreted into media and that SEQ ID. NO. […] It was reported that a 27 aa C-terminal hydrophobic loop structure within GRP94 client-binding domain (CBD, amino acids aa652-678; ^652[…], SEQ ID. NO. 4) was important for folding and interaction with Toll-like receptors and integrins. (Wu et al., 2012) Deletion or alanine-scan mutations in SEQ ID. […]

YGWSGNMERIMKAQAYQTGKDISTNYY (YGWSGNMERIMKAQAYQTGKDISTNYY-NH2) [SEQ ID. NO. 4]
Inhibition of binding of PCSK9 to the LDLR EGFA domain [1]: inhibit binding of PCSK9 to the LDLR EGFA domain
Inhibition of binding of PCSK9 to the LDLR EGFA domain ([1]; listed as SEQ. ID. NO. 4): inhibits binding of PCSK9 to the LDLR EGFA domain

CC(C)C[C@@H](C=O)NC(=O)[C@H](CC(C)C)NC(=O)[C@H](CC(C)C)NC(=O)OCc1ccccc1 [MG132] (Cbz-Leu-Leu-Leu-aldehyde)
Block of PCSK9-induced LDLR degradation after GRP94 knockdown [2]: not blocked

B1: SEQ ID. NO. 66: secretable HA-tagged form of human GRP94 lacking its C-terminal KDEL sequence (protein)
chain: MRALWVLGLCCVLLTFGSVRADDEVDVDGTVEEDLGKSREGSRTDDEVVQREEEAIQLDGLNASQIRELREKSEKFAFQAEVNRMMKLIINSLYKNKEIFLRELISNASDALDKIRLISLTDENALSGNEELTVKIKCDKEKNLLHVTDTGVGMTREELVKNLGTIAKSGTSEFLNKMTEAQEDGQSTSELIGQFGVGFYSAFLVADKVIVTSKHNNDTQHIWESDSNEFSVIADPRGNTLGRGTTITLVLKEEASDYLELDTIKNLVKKYSQFINFPIYVWSSKTETVEEPMEEEEAAKEEKEESDDEAAVEEEEEEKKPKTKKVEKTVWDWELMNDIKPIWQRPSKEVEEDEYKAFYKSFSKESDDPMAYIHFTAEGEVTFKSILFVPTSAPRGLFDEYGSKKSDYIKLYVRRVFITDDFHDMMPKYLNFVKGVVDSDDLPLNVSRETLQQHKLLKVIRKKLVRKTLDMIKKIADDKYNDTFWKEFGTNIKLGVIEDHSNRTRLAKLLRFQSSHHPTDITSLDQYVERMKEKQDKIYFMAGSSRKEAESSPFVERLLKKGYEVIYLTEPVDEYCIQALPEFDGKRFQNVAKEGVKFDESEKTKESREAVEKEFEPLLNWMKDKALKDKIEKAVVSQRLTESPCALVASQYGWSGNMERIMKAQAYQTGKDISTNYYASQKKTFEINPRHPLIRDMLRRIKEDEDDKTVLDLAVVLFETATLRSGYLLPDTKAYGDRIERMLRLSLNIDPDAKVEEEPEEEPEETAEDTTEDTEQDEDEEMDVGTDEEEETAKESTAEYPYDVPDYA
Block of LDLR degradation induced by overexpression of PCSK9 [3]: significantly block
Interaction (binding) with PCSK9 by co-immunoprecipitation (PCSK9-V5): interacts in complex with PCSK9
Interaction (binding) with PCSK9 by co-immunoprecipitation (PCSK9-V5; listed as SEQ. ID NO. 66): specifically binds to PCSK9
